Reference: PMC9157081

T1: His-E1 (Glycine max, UniProt I2FKG6 1-174)
T1 sequence: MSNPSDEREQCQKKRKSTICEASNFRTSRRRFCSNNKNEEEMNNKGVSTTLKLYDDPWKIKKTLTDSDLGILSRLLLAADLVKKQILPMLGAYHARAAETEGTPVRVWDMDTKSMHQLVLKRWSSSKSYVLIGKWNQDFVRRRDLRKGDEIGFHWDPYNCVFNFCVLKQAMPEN

B1: GmMDE06 Probe1 (dsDNA)
DNA 1: TAAAGTATAAGTTTACTAATGGAGTCCATGAGTTAAATTTATAAAACTCT
DNA 2: AGAGTTTTATAAATTTAACTCATGGACTCCATTAGTAAACTTATACTTTA
B2: GsWRKY20 Probe5 (dsDNA)
DNA 1: TTTTTAATTTGTTAACTCGTTGACTCAGTGGTAAACTCGAAAGTC
DNA 2: GACTTTCGAGTTTACCACTGAGTCAACGAGTTAACAAATTAAAAA
B3: Probe4 (dsDNA)
DNA 1: AGTCTTTGTTCTTACATGAGAAACACATGTATTTTTTTTATAGACATTAT
DNA 2: ATAATGTCTATAAAAAAAATACATGTGTTTCTCATGTAAGAACAAAGACT
B4: GmMDE06 Probe2 (dsDNA)
DNA 1: GAATCAAGGGGTGAGACTCACGGTCATGACTCATGTAAATTCGTCTCCCA
DNA 2: TGGGAGACGAATTTACATGAGTCATGACCGTGAGTCTCACCCCTTGATTC
B5: Probe3 (dsDNA)
DNA 1: AGTTGATCAGCCCGAAATACTGCATGCACCTCACAAATTGACAAGTGCTT
DNA 2: AAGCACTTGTCAATTTGTGAGGTGCATGCAGTATTTCGGGCTGATCAACT

Target: T1, His-E1
Assay: EMSA

Binding result, binds:
B1
B2
B3
B4
B5
